Experimental data as given in publication PMC12416549 (2024).

T1: TNFR1 (Homo sapiens, UniProt P19438)
T1 chain: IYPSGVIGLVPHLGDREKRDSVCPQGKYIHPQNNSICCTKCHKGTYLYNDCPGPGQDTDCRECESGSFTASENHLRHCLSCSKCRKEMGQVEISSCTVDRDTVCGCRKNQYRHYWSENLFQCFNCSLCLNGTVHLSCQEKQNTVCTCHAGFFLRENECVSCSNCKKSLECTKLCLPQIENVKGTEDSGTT


Target: T1, TNFR1
Experiment: yeast display SC50

Binder | apparent Kd (screen)
R61P (designed binder) MTLQELLREEALRRAEAEAFRYALELLAEKFPEQKEYLLDLAEEIESQIRSLSGVDVEDVPKFLDKEWAWVKELLAEHPAELAEVEAARAARLAELRAEVEAKVAA | 26900 pM
V60F (designed binder) MTLQELLREEALRRAEAEAFRYALELLAEKFPEQKEYLLDLAEEIESQIRSLSGVDVEDFRKFLDKEWAWVKELLAEHPAELAEVEAARAARLAELRAEVEAKVAA | 490 pM
S47D (designed binder) MTLQELLREEALRRAEAEAFRYALELLAEKFPEQKEYLLDLAEEIEDQIRSLSGVDVEDVRKFLDKEWAWVKELLAEHPAELAEVEAARAARLAELRAEVEAKVAA | 1270 pM
R8G (designed binder) MTLQELLGEEALRRAEAEAFRYALELLAEKFPEQKEYLLDLAEEIESQIRSLSGVDVEDVRKFLDKEWAWVKELLAEHPAELAEVEAARAARLAELRAEVEAKVAA | 593 pM
S53P (designed binder) MTLQELLREEALRRAEAEAFRYALELLAEKFPEQKEYLLDLAEEIESQIRSLPGVDVEDVRKFLDKEWAWVKELLAEHPAELAEVEAARAARLAELRAEVEAKVAA | 13800 pM
E18Q (designed binder) MTLQELLREEALRRAEAQAFRYALELLAEKFPEQKEYLLDLAEEIESQIRSLSGVDVEDVRKFLDKEWAWVKELLAEHPAELAEVEAARAARLAELRAEVEAKVAA | 539 pM
R14I (designed binder) MTLQELLREEALRIAEAEAFRYALELLAEKFPEQKEYLLDLAEEIESQIRSLSGVDVEDVRKFLDKEWAWVKELLAEHPAELAEVEAARAARLAELRAEVEAKVAA | 539 pM
A42M (designed binder) MTLQELLREEALRRAEAEAFRYALELLAEKFPEQKEYLLDLMEEIESQIRSLSGVDVEDVRKFLDKEWAWVKELLAEHPAELAEVEAARAARLAELRAEVEAKVAA | 2480 pM
P79M (designed binder) MTLQELLREEALRRAEAEAFRYALELLAEKFPEQKEYLLDLAEEIESQIRSLSGVDVEDVRKFLDKEWAWVKELLAEHMAELAEVEAARAARLAELRAEVEAKVAA | 446 pM
V100L (designed binder) MTLQELLREEALRRAEAEAFRYALELLAEKFPEQKEYLLDLAEEIESQIRSLSGVDVEDVRKFLDKEWAWVKELLAEHPAELAEVEAARAARLAELRAELEAKVAA | 490 pM
L38K (designed binder) MTLQELLREEALRRAEAEAFRYALELLAEKFPEQKEYKLDLAEEIESQIRSLSGVDVEDVRKFLDKEWAWVKELLAEHPAELAEVEAARAARLAELRAEVEAKVAA | 4390 pM
V55D (designed binder) MTLQELLREEALRRAEAEAFRYALELLAEKFPEQKEYLLDLAEEIESQIRSLSGDDVEDVRKFLDKEWAWVKELLAEHPAELAEVEAARAARLAELRAEVEAKVAA | 9410 pM
L38M (designed binder) MTLQELLREEALRRAEAEAFRYALELLAEKFPEQKEYMLDLAEEIESQIRSLSGVDVEDVRKFLDKEWAWVKELLAEHPAELAEVEAARAARLAELRAEVEAKVAA | 539 pM
H78K (designed binder) MTLQELLREEALRRAEAEAFRYALELLAEKFPEQKEYLLDLAEEIESQIRSLSGVDVEDVRKFLDKEWAWVKELLAEKPAELAEVEAARAARLAELRAEVEAKVAA | 446 pM
S47A (designed binder) MTLQELLREEALRRAEAEAFRYALELLAEKFPEQKEYLLDLAEEIEAQIRSLSGVDVEDVRKFLDKEWAWVKELLAEHPAELAEVEAARAARLAELRAEVEAKVAA | 490 pM
L52Y (designed binder) MTLQELLREEALRRAEAEAFRYALELLAEKFPEQKEYLLDLAEEIESQIRSYSGVDVEDVRKFLDKEWAWVKELLAEHPAELAEVEAARAARLAELRAEVEAKVAA | 539 pM
P79S (designed binder) MTLQELLREEALRRAEAEAFRYALELLAEKFPEQKEYLLDLAEEIESQIRSLSGVDVEDVRKFLDKEWAWVKELLAEHSAELAEVEAARAARLAELRAEVEAKVAA | 593 pM
L24W (designed binder) MTLQELLREEALRRAEAEAFRYAWELLAEKFPEQKEYLLDLAEEIESQIRSLSGVDVEDVRKFLDKEWAWVKELLAEHPAELAEVEAARAARLAELRAEVEAKVAA | 4830 pM
L75S (designed binder) MTLQELLREEALRRAEAEAFRYALELLAEKFPEQKEYLLDLAEEIESQIRSLSGVDVEDVRKFLDKEWAWVKELSAEHPAELAEVEAARAARLAELRAEVEAKVAA | 1050 pM
E43L (designed binder) MTLQELLREEALRRAEAEAFRYALELLAEKFPEQKEYLLDLALEIESQIRSLSGVDVEDVRKFLDKEWAWVKELLAEHPAELAEVEAARAARLAELRAEVEAKVAA | 869 pM
R61E (designed binder) MTLQELLREEALRRAEAEAFRYALELLAEKFPEQKEYLLDLAEEIESQIRSLSGVDVEDVEKFLDKEWAWVKELLAEHPAELAEVEAARAARLAELRAEVEAKVAA | 2730 pM
T2Y (designed binder) MYLQELLREEALRRAEAEAFRYALELLAEKFPEQKEYLLDLAEEIESQIRSLSGVDVEDVRKFLDKEWAWVKELLAEHPAELAEVEAARAARLAELRAEVEAKVAA | 869 pM
F20G (designed binder) MTLQELLREEALRRAEAEAGRYALELLAEKFPEQKEYLLDLAEEIESQIRSLSGVDVEDVRKFLDKEWAWVKELLAEHPAELAEVEAARAARLAELRAEVEAKVAA | 869 pM
E33P (designed binder) MTLQELLREEALRRAEAEAFRYALELLAEKFPPQKEYLLDLAEEIESQIRSLSGVDVEDVRKFLDKEWAWVKELLAEHPAELAEVEAARAARLAELRAEVEAKVAA | 539 pM
K66A (designed binder) MTLQELLREEALRRAEAEAFRYALELLAEKFPEQKEYLLDLAEEIESQIRSLSGVDVEDVRKFLDAEWAWVKELLAEHPAELAEVEAARAARLAELRAEVEAKVAA | 490 pM
E67D (designed binder) MTLQELLREEALRRAEAEAFRYALELLAEKFPEQKEYLLDLAEEIESQIRSLSGVDVEDVRKFLDKDWAWVKELLAEHPAELAEVEAARAARLAELRAEVEAKVAA | 4830 pM
